In data set [1] the target is T1, Spo11 wild type (core complex subunit);Ski8;Rec102;Rec104 (Saccharomyces cerevisiae;Saccharomyces …, UniProt P23179;Q02793;Q02721;P33323 1-398;1-397;1-264;1-182, |||). Kind of data set: FeBABE footprinting.
Data set [2] concerns the target T1, Spo11 wild type (core complex …). Kind of data set: FeBABE footprinting. This is another data set of the same source.

Like-named read-outs stand apart in the source and are kept apart here.

T1 sequence (P23179 whole entry, chain 1 of 4): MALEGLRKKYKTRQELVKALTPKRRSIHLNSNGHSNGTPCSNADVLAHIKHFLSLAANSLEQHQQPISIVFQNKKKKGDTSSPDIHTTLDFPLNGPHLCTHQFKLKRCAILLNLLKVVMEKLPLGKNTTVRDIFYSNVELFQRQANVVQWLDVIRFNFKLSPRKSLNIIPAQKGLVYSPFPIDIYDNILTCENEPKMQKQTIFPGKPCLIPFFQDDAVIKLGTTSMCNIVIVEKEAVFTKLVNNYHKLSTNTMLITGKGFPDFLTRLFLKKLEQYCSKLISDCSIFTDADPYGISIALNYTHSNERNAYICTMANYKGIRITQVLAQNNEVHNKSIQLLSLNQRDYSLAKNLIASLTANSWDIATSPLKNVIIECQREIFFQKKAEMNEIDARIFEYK
T1 sequence (Q02793 whole entry, chain 2 of 4): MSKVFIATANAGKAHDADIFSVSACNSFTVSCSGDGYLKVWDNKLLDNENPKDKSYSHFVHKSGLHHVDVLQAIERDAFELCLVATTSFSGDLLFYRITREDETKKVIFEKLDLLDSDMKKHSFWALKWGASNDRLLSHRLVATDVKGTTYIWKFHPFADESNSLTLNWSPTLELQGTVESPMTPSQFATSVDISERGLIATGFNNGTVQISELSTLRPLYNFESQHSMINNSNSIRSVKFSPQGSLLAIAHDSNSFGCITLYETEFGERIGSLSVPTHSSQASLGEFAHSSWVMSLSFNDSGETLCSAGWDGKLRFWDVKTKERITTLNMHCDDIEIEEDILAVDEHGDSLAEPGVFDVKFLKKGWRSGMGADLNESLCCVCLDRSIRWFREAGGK
T1 sequence (Q02721 whole entry, chain 3 of 4): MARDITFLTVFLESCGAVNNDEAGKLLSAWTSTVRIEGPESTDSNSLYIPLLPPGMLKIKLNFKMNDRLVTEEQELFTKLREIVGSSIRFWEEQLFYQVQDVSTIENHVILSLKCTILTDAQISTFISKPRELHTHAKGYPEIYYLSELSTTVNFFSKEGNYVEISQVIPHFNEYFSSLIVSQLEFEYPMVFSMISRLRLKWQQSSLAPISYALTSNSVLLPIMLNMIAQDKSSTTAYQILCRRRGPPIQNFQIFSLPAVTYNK
T1 sequence (P33323 whole entry, chain 4 of 4): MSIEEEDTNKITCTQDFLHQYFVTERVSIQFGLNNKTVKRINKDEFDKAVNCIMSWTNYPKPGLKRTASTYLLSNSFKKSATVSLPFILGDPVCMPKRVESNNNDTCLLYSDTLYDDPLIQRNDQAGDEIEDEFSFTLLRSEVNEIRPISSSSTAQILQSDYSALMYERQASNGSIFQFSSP

B1: 5'-TA-distal FeBABE probe (cb958/cb960) (dsDNA)
DNA 1: TAGCAATGTAATCGTCTATGACGTT
DNA 2: AACGTCATAGACGATTACATTGC
modifications: 5 phosphorothioates with FeBABE on strand 2 (after nt 2,4,6,8,10)
Consider B1, for which, in data set [1], the binding result was “binds”.

B2: 5'-TA-proximal FeBABE probe (cb958/cb961) (dsDNA)
DNA 1: TAGCAATGTAATCGTCTATGACGTT
DNA 2: AACGTCATAGACGATTACATTGC
modifications: 5 phosphorothioates with FeBABE on strand 2 (after nt 13,15,17,19,21)
As to B2, in data set [2], the binding result was “binds”.

The values are drawn from publication PMC7855791.
